Source: patent US20050227296A1, “Method for indentifying integrin antagonists” (The General Hospital Corporation, a Massachusetts …, priority 1988, published 2005)

What was measured:
fibrinogen = biological target: T1, fibrinogen (Homo sapiens, UniProt P02671+P02675+P02679); experiment: A domain binding to fibrinogen
T1 sequence (P02671 20-629 limits assumed): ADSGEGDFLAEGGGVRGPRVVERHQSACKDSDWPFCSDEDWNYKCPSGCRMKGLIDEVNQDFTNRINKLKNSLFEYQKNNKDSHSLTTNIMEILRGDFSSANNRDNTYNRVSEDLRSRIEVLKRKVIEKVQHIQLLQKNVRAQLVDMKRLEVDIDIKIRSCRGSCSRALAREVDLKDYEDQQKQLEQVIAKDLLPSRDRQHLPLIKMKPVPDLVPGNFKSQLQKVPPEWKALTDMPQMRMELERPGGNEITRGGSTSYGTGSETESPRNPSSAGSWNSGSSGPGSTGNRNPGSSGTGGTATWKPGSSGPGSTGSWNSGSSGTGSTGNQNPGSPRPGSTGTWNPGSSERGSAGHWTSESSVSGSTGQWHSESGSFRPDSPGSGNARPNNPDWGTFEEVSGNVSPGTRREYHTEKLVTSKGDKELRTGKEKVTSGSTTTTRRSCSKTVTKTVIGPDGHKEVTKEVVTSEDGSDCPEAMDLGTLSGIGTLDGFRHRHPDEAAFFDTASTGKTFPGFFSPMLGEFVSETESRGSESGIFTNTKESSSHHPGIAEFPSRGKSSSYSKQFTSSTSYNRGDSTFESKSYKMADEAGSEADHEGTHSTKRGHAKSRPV
T1 sequence (P02675 31-491): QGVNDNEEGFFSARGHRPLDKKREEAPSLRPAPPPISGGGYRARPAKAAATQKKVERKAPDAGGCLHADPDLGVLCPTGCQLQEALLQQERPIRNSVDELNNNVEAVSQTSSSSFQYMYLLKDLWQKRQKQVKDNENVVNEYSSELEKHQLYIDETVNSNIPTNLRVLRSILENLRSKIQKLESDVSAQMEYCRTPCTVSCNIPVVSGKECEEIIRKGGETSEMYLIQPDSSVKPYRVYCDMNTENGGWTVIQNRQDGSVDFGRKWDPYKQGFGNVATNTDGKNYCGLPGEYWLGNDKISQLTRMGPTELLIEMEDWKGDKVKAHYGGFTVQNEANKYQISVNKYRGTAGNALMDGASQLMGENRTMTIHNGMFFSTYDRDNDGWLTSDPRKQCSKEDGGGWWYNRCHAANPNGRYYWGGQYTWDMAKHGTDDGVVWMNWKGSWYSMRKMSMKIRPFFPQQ
T1 sequence (P02679 27-453): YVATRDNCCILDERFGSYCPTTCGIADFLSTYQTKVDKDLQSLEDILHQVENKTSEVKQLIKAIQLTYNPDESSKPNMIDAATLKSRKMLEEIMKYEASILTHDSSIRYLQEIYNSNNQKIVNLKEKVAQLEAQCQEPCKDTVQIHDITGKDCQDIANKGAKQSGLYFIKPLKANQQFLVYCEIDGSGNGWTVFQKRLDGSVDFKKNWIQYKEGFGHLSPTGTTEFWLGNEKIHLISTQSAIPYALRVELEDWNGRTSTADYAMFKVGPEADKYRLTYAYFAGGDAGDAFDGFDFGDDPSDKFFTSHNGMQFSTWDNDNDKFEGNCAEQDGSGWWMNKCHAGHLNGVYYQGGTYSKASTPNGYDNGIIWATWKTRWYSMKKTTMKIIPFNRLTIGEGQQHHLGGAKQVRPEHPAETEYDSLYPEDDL

EAC3b = EAC3b (Homo sapiens, UniProt P01024); experiment: Erythrocyte binding assay, EAC3b on immobilized protein
Sequence of EAC3b (P01024 749-1663 limits assumed): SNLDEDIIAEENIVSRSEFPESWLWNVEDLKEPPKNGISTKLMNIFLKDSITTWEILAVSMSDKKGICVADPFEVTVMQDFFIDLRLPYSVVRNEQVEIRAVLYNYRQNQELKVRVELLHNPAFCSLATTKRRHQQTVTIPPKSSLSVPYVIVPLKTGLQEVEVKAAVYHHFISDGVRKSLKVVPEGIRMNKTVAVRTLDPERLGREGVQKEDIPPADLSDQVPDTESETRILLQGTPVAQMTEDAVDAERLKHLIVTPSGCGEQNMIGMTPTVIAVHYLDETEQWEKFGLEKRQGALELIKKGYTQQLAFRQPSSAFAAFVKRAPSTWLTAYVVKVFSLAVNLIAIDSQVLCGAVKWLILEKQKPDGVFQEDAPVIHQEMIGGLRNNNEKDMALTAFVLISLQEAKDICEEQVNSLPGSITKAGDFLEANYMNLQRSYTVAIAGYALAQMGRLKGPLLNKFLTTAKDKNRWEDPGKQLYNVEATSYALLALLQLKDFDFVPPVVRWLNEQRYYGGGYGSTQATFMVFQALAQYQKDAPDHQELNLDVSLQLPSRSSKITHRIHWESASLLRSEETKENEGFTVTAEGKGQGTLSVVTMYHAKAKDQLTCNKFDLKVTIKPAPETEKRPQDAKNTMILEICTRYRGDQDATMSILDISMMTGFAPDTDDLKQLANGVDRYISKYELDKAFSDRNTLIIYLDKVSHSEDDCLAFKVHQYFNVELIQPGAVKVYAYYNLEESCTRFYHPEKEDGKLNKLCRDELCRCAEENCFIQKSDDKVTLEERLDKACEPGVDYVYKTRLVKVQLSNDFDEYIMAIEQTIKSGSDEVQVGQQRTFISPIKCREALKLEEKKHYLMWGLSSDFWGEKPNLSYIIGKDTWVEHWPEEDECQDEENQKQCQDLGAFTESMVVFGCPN
Sequence of EAC3b (P01024 23-667 partner limits assumed): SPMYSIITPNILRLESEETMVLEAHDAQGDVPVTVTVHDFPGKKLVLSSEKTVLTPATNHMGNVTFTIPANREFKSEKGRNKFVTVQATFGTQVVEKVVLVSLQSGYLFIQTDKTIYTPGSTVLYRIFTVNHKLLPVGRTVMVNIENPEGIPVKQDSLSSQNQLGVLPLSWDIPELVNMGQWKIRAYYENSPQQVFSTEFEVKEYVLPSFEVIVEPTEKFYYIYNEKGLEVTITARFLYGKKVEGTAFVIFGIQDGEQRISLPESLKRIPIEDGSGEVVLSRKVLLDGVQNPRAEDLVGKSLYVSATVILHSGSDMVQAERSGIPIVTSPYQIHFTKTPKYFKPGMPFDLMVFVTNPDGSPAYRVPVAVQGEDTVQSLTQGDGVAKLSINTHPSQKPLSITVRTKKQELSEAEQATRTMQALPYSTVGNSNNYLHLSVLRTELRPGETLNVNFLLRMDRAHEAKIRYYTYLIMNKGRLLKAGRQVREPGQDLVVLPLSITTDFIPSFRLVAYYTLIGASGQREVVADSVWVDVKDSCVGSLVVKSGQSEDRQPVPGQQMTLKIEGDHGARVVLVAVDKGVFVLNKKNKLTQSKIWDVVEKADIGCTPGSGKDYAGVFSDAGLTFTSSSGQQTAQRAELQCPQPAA
Procedure: Erythrocytes (E) coated with rabbit anti-E IgM (EA) or C3b (EAC3b) were prepared as described by Dana et al. (J. Immunol. 73:153, 1984). EAiC3b (erythrocytes coated with iC3b) were generated by treating EAC3b with purified human factors H and I, or alternatively prepared from EA using C5-deficient human serum (Sigma Chemical Co., St. Louis, Mo.). EAiC3b cells were washed and stored in isotonic veronal-buffered saline (VBS^2+), pH 7.4, containing 0.15 mM calcium-1 mM magnesium (MgCl2+CaCl2) and 1 mg/ml Soybean Trypsin Inhibitor (STI; Worthington Biochemical Co., Freehold, N.J.) at 1.5×10^8 cells/ml. […]
Immobilization of recombinant proteins and peptides: Purified recombinant A-domain was added to Immulon-2 96-well microtiter plates (Dynatech) overnight. […] Binding of the anti-CD11b mabs to the coated rA-domain was measured by ELISA and read using a plate reader (Molecular Dynamics).
Erythrocyte binding assays: Fluoresceinated EAiC3b, EAC3b or EA were resuspended to 1.5×10^8/ml in buffer A, and added […] to wells containing immobilized proteins or peptides in a total volume of 100 ml. […] Fluorescence was quantified (excitatory wavelength, 490 nm, emission wavelength, 510 nm) using a SLM 8000 fluorometer (SLM Instruments, Urbana, Ill.). […] The effect of temperature was evaluated in the presence of 1 mM MnCl2 at 37° C. and at 4° C.

r11bA: recombinant human CD11b A domain (Cys128 to Glu321), expressed as GST fusion protein, used as such or after thrombin cleavage
binding of the A domain to fibrinogen (fibrinogen): binds
binding of EAC3b to immobilized protein (EAC3b): not
